Data on five molecules can be found in patent publication US5882644A, “Monoclonal antibodies specific for the platelet derived growth factor β receptor and methods of use thereof” (Protein Design Labs, Inc., priority 1996, dated 1999).

Experiment [1] addresses T1, PDGF-R β expressed on transfectant cells (CHO PDGF-R β transfectants, CHO C4 line); Sp2/0 PDGF-R β … (human, UniProt P09619). In words: competition with 125I-labeled M4TS.11 on Sp2/0 PDGF-R β transfectant cells. The method, then:
Figure 11: FIG. 11 is a graph depicting competitive binding of muM4TS.11 (closed squares) and HuM4TS.11 (open squares) and HuM4TS.11(gamma 1) (open diamonds). Increasing concentrations of cold competitor antibodies were incubated with the Sp2/0 transfectants expressing PDGF-R β in the presence of radiolabeled tracer muM4TS.11, and the ratio of bound/free radioactivity determined. The results shown are mean values of triplicate samples.
To assess the ability of HuM4TS.11 to compete with the muAb for receptor binding, increasing concentrations of the two antibodies were respectively incubated on ice for one hour with Sp2/0 PDGF-R β transfectant cells and a fixed amount of tracer ^125I-labeled M4TS.11. The sample tubes were processed as in the blocking experiment described. HuM4TS.11 competed less well than muM4TS.11 (FIG. 11).

Experiment [2] concerns PDGF-R β. In words: Competition with 125I-labeled murine antibody tracer on Sp2/0 PDGF-R β transfectant cells. Type of experiment: binding, human. The following applies: Sp2/0 PDGF-R β transfectants. The method, then:
To assess the ability of HuM4TS.22 to compete with muM4TS.22 for receptor binding, increasing concentrations of the two antibodies were respectively incubated on ice for one hour with Sp2/0 PDGF-R β transfectant cells and a fixed amount of tracer ^125 I-labeled muAb. The sample tubes were processed as in the blocking experiment just described.
To assess the ability of HuM4TS.11 to compete with the muAb for receptor binding, increasing concentrations of the two antibodies were respectively incubated on ice for one hour with Sp2/0 PDGF-R β transfectant cells and a fixed amount of tracer ^125 I-labeled M4TS.11. The sample tubes were processed as in the blocking experiment described. […] The binding affinities calculated from the data were: Ka =5×10^8 M^-1 for the muAb and 3×10^7 M^-1 for the HuAb.

Experiment [3] relates to CHO transfectant cell line expressing PDGF-R β (CHO C4). In words: Inhibition of PDGF BB-induced proliferation (3H-thymidine) of CHO C4 cells. Type of experiment: cell-based, Chinese hamster. Here is the method: To determine the ability of muM4TS.11 and muM4TS.22 to block PDGF-mediated proliferation, a CHO transfectant cell line expressing PDGF-R β (CHO C4) was generated, as described above. Proliferation of this line, as measured by incorporation of ^3 H-thymidine by DNA synthesis, is stimulated several-fold by PDGF BB. The CHO PDGF-R β transfectants were plated in a 96-well tissue culture plate at about 50,000 cells/well in Ham's F-12+10% FCS and incubated for 1-2 days. The medium was removed, and the cells were washed once with serum-free medium (Ham's F-12+1 mg/ml BSA) and incubated in this media for 1-2 days to put them in a quiescent state. The appropriate amount of antibody in serum-free medium was added, and after 1-3 hours, 50 ng/ml PDGF BB was added. After overnight incubation, 1 μCi ^3 H-thymidine was added, and after a final 4 hour incubation, the cells were harvested using a PHD cell harvester (Cambridge Technology) and analyzed with a scintillation counter.

The target in experiment [4] is T1, PDGF-R β expressed on transfectant …. In words: competition with 125I-labeled muM4TS.22 on Sp2/0 PDGF-R β transfectant cells. The method, then: Figure 5: FIG. 5 is a graph depicting competitive binding of muM4TS.22 (closed circles) and HuM4TS.22 (open circles). Increasing concentrations of cold competitor antibodies were incubated with the Sp2/0 transfectants expressing PDGF-R β in the presence of radiolabeled tracer muM4TS.22, and the ratio of bound/free radioactivity determined. The results shown are mean values of triplicate samples.
To assess the ability of HuM4TS.22 to compete with muM4TS.22 for receptor binding, increasing concentrations of the two antibodies were respectively incubated on ice for one hour with Sp2/0 PDGF-R β transfectant cells and a fixed amount of tracer ^125I-labeled muAb. The sample tubes were processed as in the blocking experiment just described. MuM4TS.22 and HuM4TS.22 competed with equal efficiencies (FIG. 5).

B1: HuM4TS.11 (antibody, V domains shown)
VH: QVQLVQSGAEVKKPGASVKVSCKASGYTFTNCWMHWVRQAPGQGLEWIGYINPTTGYSEYNQNFKDKATITADKSTSTAYMELSSLRSEDTAVYYCTSNYGHYDWFGNWGQGTLVT
VL: DIQMTQSPSSLSASVGDRVTITCRASESVDSYGNSFMHWYQQKPGKAPKLLIYRASNLESGIPSRFSGSGSRTDFTLTISSLQPEDVATYYCQQSNEDPPTFGQGTKVEIK
For the molecule B1, in experiment [1], the Ka was 3e+07 M⁻¹.

B2: HuM4TS.11(gamma1): same variable domains as HuM4TS.11 but a gamma1 rather than gamma4 heavy chain constant region (antibody, V domains shown)
VL: DIQMTQSPSSLSASVGDRVTITCRASESVDSYGNSFMHWYQQKPGKAPKLLIYRASNLESGIPSRFSGSGSRTDFTLTISSLQPEDVATYYCQQSNEDPPTFGQGTKVEIK
VH: QVQLVQSGAEVKKPGASVKVSCKASGYTFTNCWMHWVRQAPGQGLEWIGYINPTTGYSEYNQNFKDKATITADKSTSTAYMELSSLRSEDTAVYYCTSNYGHYDWFGNWGQGTLVT
As to B2, the “competition with labeled murine antibody for receptor binding / binding affinity, in words” value in experiment [2] was “higher binding affinity than HuM4TS.11”. Moreover, the “binding affinity Ka” value in experiment [2] (calculated from competitive binding data) was 1.6e+08 M⁻¹. In addition, the “inhibition of PDGF-mediated proliferation compared with another antibody” value in experiment [3] is listed as “about equally well”.

B3: HuM4TS.11.2: HuM4TS.11 version in which a few additional human framework residues were changed to their murine counterparts (antibody, V domains shown)
VL: DIVLTQSPSSLSASVGDRVTITCRASESVDSYGNSFMHWYQQKPGKAPKLLIYRASNLESGIPSRFSGGGSRTDFTLTISSLQPEDVATYYCQQSNEDPPTFGQGTKVEIK
VH: QVQLVQSGAEVKKPGASVKVSCKASGYTFTNCWMHWVKQRPGQGLEWIGYINPTTGYSEYNQNFKDKATLTADKSTSTAYIELSSLRSEDTAVYYCTSNYGHYDWFGNWGQGTLVT
B3: the “competition with labeled murine antibody for receptor binding / binding affinity, in words” value in experiment [2] is “the same binding characteristics for PDGF-R β”. Further, the “inhibition of PDGF-mediated proliferation compared with another antibody” value in experiment [3] is “the same level of inhibition of PDGF-stimulated cell proliferation as does HuM4TS.11”.

B4: muM4TS.22 (antibody, V domains shown)
VH: QVQLKESGPGLVAPSQSLSITCTVSGFSLTNYAINWVRQPPGQGLEWLGIIWTGGGTSYNSALKSRLSISKDNSKSQVFLKMNSLQTDDTARYYCARTGTRGYFFDYWGQGTTLTVSS
VL: DIQMNQSPSSLSASLGDTITITCHASQNINVWLSWYQRKPGNIPKLLIYKASNLHTGVPSRFSGSGSGTGFTLTISSLQPEDIATYYCQQGQSFPFTFGSGTKLEIK
B4 returned a Ka in experiment [4] of 2.6e+08 M⁻¹.

B5: HuM4TS.22 (antibody, V domains shown)
VH: QVQLQESGPGLVKPSETLSLTCTVSGFSLTNYAINWVRQPPGKGLEWLGIIWTGGGTSYNSALKSRLTISKDTSKNQVSLKLSSVTAADTAVYYCARTGTRGYFFDYWGQGTLVTVSS
VL: DIQMTQSPSSLSASVGDRVTITCHASQNINVWLSWYQQKPGKAPKLLIYKASNLHTGVPSRFSGSGSGTGFTLTISSLQPEDIATYYCQQGQSFPFTFGGGTKVEIK
Molecule B5 displayed a Ka in experiment [4] of 4e+08 M⁻¹.
